The test deals with CCR2 on mouse monocytes (mouse, UniProt P51683 1-373). The test is described as follows: cell-based or functional assay.

The source of these data is patent US20170051040A1 (UNIVERSITE PIERRE ET MARIE CURIE PARIS 6, published 2017).

Non-standard residues stand in square brackets, D forms with d. No end group written: not given here.

Sequence of CCR2 on mouse monocytes (P51683 whole entry): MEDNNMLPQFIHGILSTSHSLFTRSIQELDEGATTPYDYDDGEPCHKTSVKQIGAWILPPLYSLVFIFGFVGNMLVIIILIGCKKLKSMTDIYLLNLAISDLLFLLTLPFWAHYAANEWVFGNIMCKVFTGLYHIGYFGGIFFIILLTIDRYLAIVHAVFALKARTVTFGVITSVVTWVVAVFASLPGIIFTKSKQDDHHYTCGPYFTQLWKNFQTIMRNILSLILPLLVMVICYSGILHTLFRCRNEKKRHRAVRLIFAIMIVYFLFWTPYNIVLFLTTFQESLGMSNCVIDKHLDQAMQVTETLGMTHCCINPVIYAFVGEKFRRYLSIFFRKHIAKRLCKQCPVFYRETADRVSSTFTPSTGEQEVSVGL

B1: ECL1 (C) inverso (peptide)
peptide: [dL]G[dT][dF][dL][dK][dC]
Take B1: the “inhibition of migration of mouse monocytes and classical monocytes, IC50” value was 2000 nM.
